Source: US8673594B2, “Methods for stimulating nervous system regeneration and repair by regulating arginase I and polyamine synthesis” (Research Foundation of City University of New York, priority 2000, dated 2014)
Entries after “also recorded” stand apart in the source; their conditions may differ.

B1: BDNF: Brain-derived neurotrophic factor, Trk-family neurotrophin (protein, UniProt P23560 19-247, looked up)
Neurotrophic factor BDNF …: APMKEANIRGQGGLAYPGVRTHGTLESVNGPKAGSRGLTSLADTFEHVIEELLDEDQKVRPNEENNKDADLYTSRVMLSSQVPLEPPLLFLLEEYKNYLDAANMSMRVRRHSDPARRGELSVCDSISEWVTAADKKTAVDMSGGTVTVLEKVPVSKGQLKQYFYETKCNPMGYTKEGCRGIDKRHWNSQCRTTQSYVRALTMDSKKRIGWRFIRIDTSCVCTLTIKRGR
B2: GDNF: glial cell line-derived neurotrophic factor (protein, UniProt P39905 78-211, looked up)
Glial cell line-derived …: SPDKQMAVLPRRERNRQAAAANPENSRGKGRRGQRGKNRGCVLTAIHLNVTDLGLGYETKEELIFRYCSGSCDAAETTYDKILKNLSRNRRLVSDKVGQACCRPIAFDDDLSFLDDNLVYHILRKHSAKRCGCI

Experiments:
[1] = test system: cerebellar neurons on MAG-expressing CHO cells; assay: Neurite outgrowth of cerebellar neurons on MAG-expressing or control CHO cells; type: cell-based; details: for block of inhibition of neurite growth by MAG after priming: neurons primed overnight with neurotrophin 200 ng/ml, then transferred to CHO monolayers
Procedure: FIG. 2: Improved Axonal Growth on MAG Induced By Elevating cAMP Levels is Transcription-Dependent. (A) Isolated cerebellar neurons at a density of 20,000 neurons per well were plated onto a monolayer of either MAG-expressing Chinese hamster ovary (CHO) cells (striped bars) or control CHO cells (black bars) and cultured overnight before being fixed and immunostained for GAP43 to visualize the neurites. The length of the longest neurite per neuron, from 180-200 neurons, was measured and results are the average length+/−SEM. Where indicated, dibutyryl cAMP (dbcA) at 1 mM in the presence or absence of the inhibitor of transcription, 5,6-dichloro-1-b-D-ribofuranosylbenzimidazole (DRB) at 5 μM, was added to each culture. (B) Cerebellar neurons (1×10^6) were plated onto poly-L-lysine and cultured overnight with brain-derived neurotrophic factor (BDNF) at 200 ng/ml, (termed priming) in the presence or absence of DRB at 5 μM, before being transferred to the CHO cell monolayers.
FIG. 6: An Ornithine Decarboxylase (ODC) Inhibitor Abrogates the Blocking Effect of dbcAMP on the Inhibition of Axonal Outgrowth by MAG and Myelin. […] The longest neurite from at least 180-200 neurons were measured. Results are shown as the mean neurite length+/−SEM.
(§1) After further incubation, neurons were fixed and immunostained for GAP43. The longest neurite from each neuron for 180-200 neurons were measured. Results are shown as the mean neurite length+/−SEM.
FIG. 8: An Inhibitor Of ODC Blocks The Priming Effects Of GDNF On The Inhibition By MAG. […] After further incubation, neurons were fixed and immunostained for GAP43. The longest neurite from each neuron for 180-200 neurons were measured. Results are shown as the mean neurite length±SEM.
Primed neurons were transferred to either MAG-expressing or control CHO cells (A) or a substrate of CNS myelin (B) for further incubation. Neurons were then fixed and immunostained for GAP43. The longest neurite from each neuron was measured for 180-200 neurons. Results are shown as the percentage of control. […]
Neurons were isolated essentially as described in Doherty at al., Nature, 343, pp. 464-66 (1990); Neuron, 5, pp. 209-19 (1990); and Kleitman at al., Culturing Nerve Cells, pp. 337-78, MIT Press, Cambridge, Mass./London, England (G. Banker and K Goslin, Eds.) (1991). Briefly, for animals up to nine days of age, the cerebellum, from two animals were removed and combined in 5 ml of 0.025% trypsin in PBS, triturated, and incubated for a further 10 minutes (min.) at 37° C. Trypsinization was stopped by addition of 5 ml DMEM containing 10% fetal calf serum (FCS) and cells were centrifuged at 800 rpm for 6 min. […] For older DRG neurons, ganglia were removed from two animals and incubated in 5 ml of Sat medium containing 0.025% trypsin and 0.15% collagenase type I (Worthington) for 30 min. at 37° C. The ganglia were triturated with a fire-polished Pasteur pipette. Trypsinization was stopped by adding 5 ml of DMEM containing 10% FCS, centrifuged at 800 rpm for 6 min, and resuspended in 2 ml of SAT (DeBellard et al., 1996). Cells were counted with a Coulter counter.
Chinese hamster ovary (CHO) cells deficient in the dihydrofolate reductase (dhfr) gene (Urlaub and Chasin, Proc. Natl, Acad, Sci. 77, pp. 4216-20 (1980)) were transfected with a MAG-cDNA expression plasmid with the dhfr gene and the L-MAG cDNA, cells with multiple copies of dbfr were selected by growing in increasing concentrations of methotrexate, and the expression of MAG by individual transfected CHO cell lines characterized as described in Mukhopadhyay et al., Neuron, 13, pp. 757-67 (1994), which is incorporated herein by reference. The MAG-expressing transfected CHO cell line) (“CHO-MAG2”) in that publication was deposited on Jun. 27, 1996 with the American Type Culture Collection (ATCC) (Rockville, Md.) according to the provisions of the Budapest Treaty, and was assigned the ATCC accession number designated: ATCC CRL-12145. […]

[2] = test system: cerebellar neurons on purified CNS myelin; assay: Neurite outgrowth of cerebellar neurons on purified CNS myelin substrate; type: cell-based; details: for block of myelin-dependent inhibition in the presence of a transcriptional inhibitor: dbcAMP 1 mM or BDNF 200 ng/ml priming, with DRB 5 μM; for block of inhibition by myelin after priming: neurons primed with neurotrophin
Procedure: Isolated cerebellar neurons at a density of 20,000 neurons per well were plated onto a substrate of purified CNS myelin and cultured overnight before being fixed and immunostained for GAP43. The length of the longest neurite per neuron from 180-200 neurons was measured and results are the average length+/−SEM. Where indicated, dibutyryl cAMP (dbcA) at 1 mM in the presence or absence of the inhibitor of transcription, 5,6-dichloro-1-b-D-ribofuranosylbenzimidazole (DRB) at 5 μM, was added to each culture. (B) Cerebellar neurons (1×10^6) were plated onto poly-L-lysine and cultured overnight with brain-derived neurotrophic factor (BDNF) at 200 ng/ml, (termed priming) in the presence or absence of DRB at 5 μM, before being transferred to the CNS myelin substrate.
The longest neurite from at least 180-200 neurons were measured. Results are shown as the mean neurite length+/−SEM.
as §1
Primed neurons were transferred to either MAG-expressing or control CHO cells (A) or a substrate of CNS myelin (B) for further incubation. Neurons were then fixed and immunostained for GAP43. The longest neurite from each neuron was measured for 180-200 neurons.
Trypsinization was stopped by addition of 5 ml DMEM containing 10% fetal calf serum (FCS) and cells were centrifuged at 800 rpm for 6 min. […] The ganglia were triturated with a fire-polished Pasteur pipette. […] Cells were counted with a Coulter counter.
The neurite outgrowth assay was carried out by adding 5×10^4 neurons to the immobilized myelin substrate or 2×10^4 neurons to the CHO cell monolayers. Briefly, confluent monolayers of control and MAG-expressing CHO cells were established over a 24-hour (h) period in individual chambers of an 8-well tissue culture slide (Lab-Tek). […] Culture medium was SATO containing 2% FCS.
GAP43 antibody was detected by staining with Texas Red and arginase antibody was detected with anti-biotin secondary antibody followed by Texas Red-conjugated streptavidin.
After periods of time as indicated, the co-cultures were fixed for 30 min with 4% paraformaldehyde and permeabilized with ice-cold methanol for 2 min. […] After three more washes, the slides were mounted in Permfluor (Baxter) and viewed with a Zeiss fluorescent microscope. The length of the longest neurite for each GAP43-positive neuron was determined using the Biological Detection System image analysis program (Pittsburgh).

Molecule | block of inhibition of neurite growth by MAG ([1]; agent added directly to the co-culture (dbcAMP 1 mM), overnight) | block of inhibition of neurite growth by myelin ([2]; dbcAMP 1 mM added directly to the culture) | block of myelin-dependent inhibition in the presence of a transcriptional inhibitor [2] | block of inhibition of neurite growth by MAG after priming [1] | block of inhibition by myelin after priming [2]
CCCC(=O)Nc1ncnc2c1ncn2[C@@H]1O[C@@H]2COP(=O)(O)O[C@H]2[C@H]1OC(=O)CCC [dbcAMP, dibutyryl cAMP] | blocks inhibition of neuronal growth by MAG; also recorded: blocks the inhibition of neurite growth by MAG | blocks the inhibition of neurite growth | completely lost | – | –
B1 | – | – | completely lost | blocks inhibition of neuronal growth by MAG; also recorded: blocked the inhibition by MAG | overcomes inhibition of regeneration by MAG and myelin
B2 | – | – | – | overcomes inhibition of regeneration by MAG and myelin | overcomes inhibition of regeneration by MAG and myelin
